From the supplement of paper PMC10126150
± gives the standard deviation of the averaged measurements.

These sequences were tested on ATP (assay: switch fluorescence ratio, 500 uM ATP over buffer (Cy3 cluster intensity, sum of 5 cycles each) (fold (ratio)); higher = stronger signal-on switching upon ATP binding; sequences stand for … in TCGTCGGCAGCGTCAGATGTGTATAAGAGACAGTTTTTTTTTTTTTTTTTTTTTTTTT…TC). Settings: aptamer strand: ATP DNA aptamer (quencher-CACCTGGGGGAGTATTGCGGAGGAAGG + anchor), 100 nM annealed; ATP concentration: 500 uM.
In short: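 Values give the fluorescence ratio for each switch-domain sequence, averaged from per-cluster ratios of summed target-cycle to summed buffer-cycle Cy3 intensity. The Cy3-labelled switching-strand clusters sat on a modified Illumina MiSeq flow-cell, were annealed to 100 nM quencher-labelled ATP aptamer, and were imaged in selection buffer, then after 15 min with 500 uM ATP at 22 °C. Five cycles ran with NaOH stripping and re-annealing between them, and clusters outside 100-1000 RFU were excluded.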
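Further: ATP exposure 15 min at 22 °C before imaging.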

Row | Sequence | switch fluorescence ratio
1 | CCAGATTACT | 1.01 ± 0.015
2 | CCAGATTTGT | 1.01 ± 0.016
3 | CCAGCACCTC | 1.45 ± 0.039
4 | CCAGCATAAT | 1.41 ± 0.05
5 | CCAGCCGTCG | 1.07 ± 0.04
6 | CCAGCGTGCT | 1.11 ± 0.08
7 | CCAGCTAGTT | 1.05 ± 0.086
8 | CCAGGACGTA | 1.02 ± 0.027
9 | CCAGGAGGCG | 0.999 ± 0.015
10 | CCAGGAGTAG | 1.034 ± 0.0039
11 | CCAGGAGTCA | 1.032 ± 0.0017
12 | CCAGGATGCG | 0.971 ± 0.035
13 | CCAGGATTAT | 1.027 ± 0.0034
14 | CCAGGCTTGA | 1.04 ± 0.052
15 | CCAGGCTTGT | 1.01 ± 0.018
16 | CCAGGGACGA | 1.02 ± 0.024
17 | CCAGGGGAGG | 1.11 ± 0.071
18 | CCAGGGGCTG | 1.67 ± 0.89
19 | CCAGGGGCTT | 1.31 ± 0.41
20 | CCAGGGGGTC | 1.11 ± 0.14
21 | CCAGGGTCGC | 0.9965 ± 0.0067
22 | CCAGGTGGCT | 2.64 ± 0.3
23 | CCAGGTTTGG | 1.03 ± 0.024
24 | CCAGTAAGTG | 1.09 ± 0.03
25 | CCAGTAATTT | 1.038 ± 0.0029

Row | Sequence | switch fluorescence ratio
26 | CCAGTACTTC | 1.11 ± 0.023
27 | CCAGTCAACG | 0.9802 ± 0.0085
28 | CCAGTGATGT | 1.04 ± 0.024
29 | CCAGTGTATA | 1.002 ± 0.0013
30 | CCATAACGGG | 0.97548 ± 0.0008
31 | CCATAGGAAT | 1.06 ± 0.023
32 | CCATAGGGGG | 0.989 ± 0.025
33 | CCATATAGTT | 0.986 ± 0.03
34 | CCATATCGTG | 0.988 ± 0.026
35 | CCATATGGGG | 1.01 ± 0.019
36 | CCATATTTAG | 0.996 ± 0.028
37 | CCATCGGCTG | 1.06 ± 0.038
38 | CCATCGTAAT | 4.84 ± 1.1
39 | CCATGAGCAG | 2.06 ± 0.11
40 | CCATGGGTTG | 1.01 ± 0.016
41 | CCATGTTGAT | 1 ± 0.039
42 | CCATTAATCT | 1.34 ± 0.46
43 | CCATTCATTT | 0.991 ± 0.02
44 | CCATTCTTGA | 0.996 ± 0.037
45 | CCATTCTTGG | 0.977 ± 0.018
46 | CCATTGTTAT | 0.988 ± 0.017
47 | CCATTGTTTT | 0.997 ± 0.018
48 | CCATTTGAGA | 0.998 ± 0.022
49 | CCATTTTGCA | 1.04 ± 0.05
50 | CCCAAGGGCA | 1.02 ± 0.051

Row | Sequence | switch fluorescence ratio
51 | CCCAATTTGC | 1.32 ± 0.022
52 | CCCACAGGAC | 1.73 ± 0.14
53 | CCCAGCTTGT | 1.035 ± 0.0031
54 | CCCAGGCGGA | 1.65 ± 0.78
55 | CCCAGGTAGC | 4.65 ± 0.43
56 | CCCATGTATC | 1.09 ± 0.011
57 | CCCATTTGTA | 1 ± 0.026
58 | CCCATTTTGT | 0.991 ± 0.02
59 | CCCCATTCCG | 1.04 ± 0.022
60 | CCCCGAAACT | 2.28 ± 1.5
61 | CCCCGAGCCG | 1.02 ± 0.06
62 | CCCGATTTTT | 0.993 ± 0.017
63 | CCCGCTGCTT | 1.33 ± 0.021
64 | CCCGGCCATT | 1.05 ± 0.013
65 | CCCGGCGAGT | 1.08 ± 0.038
66 | CCCGGGGGAA | 1.03 ± 0.014
67 | CCCGGGTATG | 1.03 ± 0.02
68 | CCCGGGTTAG | 1.08 ± 0.028
69 | CCCTAATACG | 1.76 ± 0.044
70 | CCCTGGGGTA | 1.07 ± 0.056
71 | CCCTGTAGGA | 1.04 ± 0.088
72 | CCCTTGACGG | 1.07 ± 0.14
73 | CCCTTTTTTG | 1.02 ± 0.05
74 | CCGAAATTTT | 1.05 ± 0.016
75 | CCGAACACCT | 1.219 ± 0.0037

Row | Sequence | switch fluorescence ratio
76 | CCGAAGGGGC | 1.52 ± 0.083
77 | CCGAATATGA | 1.55 ± 0.079
78 | CCGACATGGT | 1.27 ± 0.11
79 | CCGACGTAGG | 2.494 ± 0.017
80 | CCGAGGGCAG | 2.75 ± 0.36
81 | CCGAGTAGGG | 1.074 ± 0.0031
82 | CCGAGTGGAG | 1.083 ± 0.0024
83 | CCGAGTTATA | 2.15 ± 0.013
84 | CCGATCGTGG | 2.86 ± 1.9
85 | CCGATGTATA | 1.35 ± 0.053
86 | CCGATTCGGG | 1.012 ± 0.0064
87 | CCGATTGGTC | 1.117 ± 0.0062
88 | CCGATTTATA | 1.013 ± 0.0052
89 | CCGCATTTTT | 2.19 ± 0.82
90 | CCGCCCTATT | 1.4 ± 0.024
91 | CCGCGCACCG | 1.73 ± 0.053
92 | CCGCGGATGG | 1.25 ± 0.15
93 | CCGCGGCGGG | 1.04 ± 0.028
94 | CCGCGTCTGT | 1.24 ± 0.032
95 | CCGCTGGGCT | 1.83 ± 0.056
96 | CCGCTTTTAT | 2.69 ± 0.48
97 | CCGGAAACCA | 1.01 ± 0.021
98 | CCGGAAATTT | 1.01 ± 0.019
99 | CCGGAAGGGC | 1.84 ± 0.69
100 | CCGGAGTGGA | 2.56 ± 1.3

Row | Sequence | switch fluorescence ratio
101 | CCGGATTATG | 1.05 ± 0.016
102 | CCGGCCCACA | 1.266 ± 0.0065
103 | CCGGCCCCGG | 1.68 ± 0.028
104 | CCGGCGCGTG | 1.06 ± 0.1
105 | CCGGCGGGAG | 1.099 ± 0.0064
106 | CCGGCTGGGT | 0.9584 ± 0.0069
107 | CCGGGAACGC | 1.29 ± 0.024
108 | CCGGGAGTAC | 2.14 ± 0.55
109 | CCGGGAGTGT | 1.12 ± 0.013
110 | CCGGGCCTGC | 1.11 ± 0.014
111 | CCGGGCGATG | 1.6 ± 0.1
112 | CCGGGCGGAT | 1.02 ± 0.0099
113 | CCGGGGAGGT | 1.06 ± 0.1
114 | CCGGGGAGTC | 1.04 ± 0.044
115 | CCGGGGGGGT | 1.09 ± 0.077
116 | CCGGGGGTCA | 1.01 ± 0.039
117 | CCGGGGTGGG | 0.9964 ± 0.0055
118 | CCGGGGTGTT | 1.22 ± 0.3
119 | CCGGGTAAAA | 1.03 ± 0.057
120 | CCGGGTAATG | 1.27 ± 0.028
121 | CCGGGTCGGG | 1.006 ± 0.0049
122 | CCGGGTCGGT | 0.9554 ± 0.0036
123 | CCGGGTGACC | 1.143 ± 0.0068
124 | CCGGGTGTGG | 1.03 ± 0.028
125 | CCGGGTTTCG | 0.996 ± 0.035

Row | Sequence | switch fluorescence ratio
126 | CCGGTAAGGA | 0.994 ± 0.015
127 | CCGGTATTGA | 0.994 ± 0.017
128 | CCGGTCCCTA | 1 ± 0.011
129 | CCGGTGCGTG | 1.13 ± 0.14
130 | CCGGTGGGGA | 1.12 ± 0.064
131 | CCGGTGTCTG | 1.05 ± 0.09
132 | CCGGTTATGA | 1.04 ± 0.02
133 | CCGGTTGCAT | 4.54 ± 1.9
134 | CCGGTTTTTA | 0.996 ± 0.01
135 | CCGTAAGCAG | 1.96 ± 0.034
136 | CCGTAATTGA | 2.75 ± 0.16
137 | CCGTACGTTT | 1.24 ± 0.024
138 | CCGTATAATG | 0.98 ± 0.034
139 | CCGTATGTGC | 1.751 ± 0.0087
140 | CCGTCAAGAG | 4.35 ± 0.16
141 | CCGTGAGGTG | 1.135 ± 0.01
142 | CCGTGAGTTT | 1.07 ± 0.04
143 | CCGTGCAGTT | 2.12 ± 0.82
144 | CCGTGGGTTT | 1.059 ± 0.0031
145 | CCGTGTTGCG | 1.01 ± 0.022
146 | CCGTGTTTTT | 0.988 ± 0.032
147 | CCGTTAGCGG | 1.1074 ± 0.00044
148 | CCGTTATCTC | 2.81 ± 1
149 | CCGTTATTCT | 1.35 ± 0.27
150 | CCGTTGTGCC | 1.022 ± 0.0018

Row | Sequence | switch fluorescence ratio
151 | CCGTTTCGTG | 0.9948 ± 0.0046
152 | CCGTTTGCAG | 1.13 ± 0.15
153 | CCGTTTGGCA | 1.15 ± 0.022
154 | CCGTTTTTTG | 1 ± 0.032
155 | CCTAAGAATG | 1.043 ± 0.0035
156 | CCTACATTG | 1 ± 0.02
157 | CCTAGAGAGG | 1.031 ± 0.006
158 | CCTAGGGGAA | 1.02 ± 0.022
159 | CCTAGTACCT | 1.19 ± 0.05
160 | CCTAGTTGAA | 1.03 ± 0.015
161 | CCTAGTTTTT | 0.997 ± 0.023
162 | CCTATAAAGG | 1.03 ± 0.04
163 | CCTATACAAC | 1.11 ± 0.044
164 | CCTATCACAA | 3.47 ± 0.46
165 | CCTATCCCTG | 1.08 ± 0.058
166 | CCTATGGGTT | 1.05 ± 0.015
167 | CCTATTGGGG | 1.02 ± 0.037
168 | CCTCAAAGCT | 1.794 ± 0.0088
169 | CCTCAGAGGG | 1.24 ± 0.22
170 | CCTCAGGGAA | 1.2 ± 0.14
171 | CCTCATAGTC | 1.413 ± 0.0066
172 | CCTCCCTTTT | 2.2 ± 0.4
173 | CCTCGCGGGA | 1.8 ± 0.028
174 | CCTCGGACTT | 1.57 ± 0.48
175 | CCTCGGTTTT | 1.24 ± 0.013

Row | Sequence | switch fluorescence ratio
176 | CCTCGTGTTG | 1.02 ± 0.022
177 | CCTCGTTATT | 1.27 ± 0.027
178 | CCTCTATTCT | 1.1 ± 0.026
179 | CCTCTGATCT | 1.38 ± 0.1
180 | CCTCTGATTT | 1.47 ± 0.3
181 | CCTCTGGTTT | 2.84 ± 0.37
182 | CCTGAATTAT | 0.9941 ± 0.0012
183 | CCTGAGGATG | 1.03 ± 0.015
184 | CCTGAGGTGT | 1.47 ± 0.18
185 | CCTGAGTGTA | 1 ± 0.024
186 | CCTGAGTTTG | 1.01 ± 0.035
187 | CCTGCAGGGG | 1.094 ± 0.0051
188 | CCTGCGGGGA | 1.31 ± 0.29
189 | CCTGGAGCGG | 1.19 ± 0.037
190 | CCTGGAGCTC | 1.35 ± 0.02
191 | CCTGGAGGTT | 0.964 ± 0.022
192 | CCTGGATTTC | 1.01 ± 0.077
193 | CCTGGCAAGT | 1.87 ± 0.078
194 | CCTGGCAGAG | 1.22 ± 0.048
195 | CCTGGCAGCG | 1.05 ± 0.03
196 | CCTGGGCCGC | 1.65 ± 0.081
197 | CCTGGGCCGG | 1.06 ± 0.058
198 | CCTGGGCTGT | 1.52 ± 0.48
199 | CCTGGGGGAT | 1.75 ± 0.43
200 | CCTGGGGGC | 1.1 ± 0.056
